Patent US20200239597A1, “AN ANTI-APOPTOTIC FUNCTION OF PKM2 AND INTRACELLULARLY EXPRESSED SCFV ANTIBODIES” (La Jolla Institute for Allergy and Immunology, priority 2017, published 2020)

Key:
PKM2 (K422R) = biological target: T1, PKM2 (K422R) (Homo sapiens, UniProt P14618, K422R); test: Pyruvate kinase assay, PKM2 (K422R); assay type: biochemical
T1 construct: His; made in house; host or cells: Escherichia coli BL21(DE3) (stated generally for WT and mutant PKM2)
Experimental: (§1) Activity was measured by Kinase-Glo® Plus Luminescent Kinase Assay kit (promega), using ADP and PEP as substrates), with PKM2 at 50 nM. Shown are values with the basal activity of PKM2 alone subtracted out.
(§2) Pyruvate kinase activity was measured by using Kinase-Glo® Plus Luminescent Kinase Assay kit (Promega). 50-100 nM of purified WT or mutant PKM2 was added in 100 μl assay buffer containing 50 mM Tris pH7.5, 100 mM KCl, 10 mM MgCl2, 200 μM PEP, 200 μM ADP, and 3% DMSO. After a 15-min incubation, Kinase-Glo Plus™ reagent (Promega Corporation, Madison, Wis., USA) was added, according to the manufacturer's instructions. In some cases, 0-40 μM fructose 1,6-bisphosphate (FBP) and 0-150 nM scFv 5 were added.

293T cells [1] = test: Rescue of 293T cells from BimS-induced apoptosis (cell viability); assay type: cell-based, human
Experimental: Human BimS cDNA was subcloned into a pShooter™ mammalian expression vector (pCMV/myc/cyto; Invitrogen), to allow the expression of BimS driven by a CMV promoter. […] 293T cells were then infected with the intrabody library and then transfected with 4 μg/ml BimS plasmid, using 10 l of Lipofectamine® 2000 transfection reagent (Thermo Fisher). After 24 h post-infection, the culture medium was replaced with fresh MEMc medium supplemented with 10% FBS and penicillin/streptomycin (Gibco-Invitrogen).
Cell viability was measured with a Countess™ Automated Cell Counter (Invitrogen) using trypan blue. For the clonogenic survival assay, 293T or MEFs cells were seeded in 6-well plates at 1×10^5 cells/well in a 2-ml volume, transfected with BimS cDNA and incubated for 24 h. Afterwards, the medium was replaced and the cells cultured for 3-4 days. Thereafter, the plates were rinsed with PBS and fixed and stained with a solution containing crystal violet (0.5% w/v) and glutaraldehyde (6% v/v) as described (Franken et al., 2006).

293T cells [2] = test: Protection from death induced by transient expression of tBid; assay type: cell-based, human; details: surviving cells counted after 72 h
Experimental: FIG. 2B is a non-limiting graph representation of a transfection assay to assess the effect of IB5 in cells transfected with pro-apoptotic proteins BimS and tBid encoding cDNA. […] 293T cells were transfected treated with […] tBid or BimS cDNA. Surviving cells were counted after 72 h.

MDA-MB231 = test: Clonogenic rescue from BimS-induced death, MDA-MB231; assay type: cell-based; details: parental MDA-MB231
Experimental: Control or IB5-expressing cells were transfected with BimS cDNA. The plates were fixed and stained with crystal violet after 12 days and the total areas of colonies were measured. Mean, SD and P values were calculated from 3 individual plates.

U2OS cells = test: Clonogenic rescue from BimS-induced death, U2OS; assay type: cell-based
PKM2 (K270M) = biological target: T2, PKM2 (K270M) (Homo sapiens, UniProt P14618, K270M); test: Pyruvate kinase assay, PKM2 (K270M); assay type: biochemical; details: high concentrations of scFv 5
T2 construct: His (N); made in house; host or cells: Escherichia coli BL21(DE3)
Experimental: as §1, §2

[3] = biological target: T3, pyruvate kinase M2 (PKM2) (Homo sapiens, UniProt P14618); test: Target protein immunoprecipitation (FLAG pull-down, mass spectrometry, immunoblot); assay type: binding; details: Triton X-100 extracts of 293T cells, anti-FLAG beads
T3 construct: some intrabodies precipitated specific cellular proteins; endogenous in cells; host or cells: HEK293T (293T)
Experimental: FIG. 1 C is a photograph of a non-limiting SDS-PAGE gel with silver stain from an immunoprecipitation assay using antibodies encoded by DNA sequences isolated from FIG. 1B. […] Intrabodies that rescued cells from BimS-induced death were chosen for pull-down analysis as described in Methods. Left panel: Triton™-X-100 (1%) cell extracts were incubated with anti-FLAG beads, then proteins eluted with 3×FLAG peptide and separated by SDS-PAGE with silver stain. Specific bands are marked with dots; some bands (e.g. at 37 and 70 kD) are nonspecific. […] The bands near 25 kD are the scFv polypeptides, whose expression levels varied.
Flag-tagged intrabody was introduced along with a tandem Strep-tag by PCR into the same lentiviral vector used for selection. 293T cells infected with the intrabody lentivirus were incubated at 30° C. for 72 h as described above. After washing with cold PBS, 5×10^8 cells were lysed for 15 minutes on ice in lysis buffer (50 mM Tris HCl, pH 7.4, 150 mM NaCl, 1 mM EDTA, 1% Triton™ X-100). Cell lysates were clarified by centrifugation for 15 minutes at 4° C. at 16,000×g. The total protein content of the soluble fraction was quantified using the BCA assay. For pull-down experiments, 10 mg of protein lysate was incubated with 200 al of EZview™ Red anti-FLAG® M2 Affini-ty Gel (Sigma-Aldrich) for 2 h at 4° C. Beads were washed 3 times in wash buffer (50 mM Tris HCl, pH 7.4, 150 mM NaCl, 1 mM EDTA, 0.1% Triton X-100). Elution was performed under native conditions by competition with 3×FLAG peptide following the manufacturer's protocol. Eluates were used for the second step purification using Strep-Tactin Superflow Plus™ [Qiagen], following the manufacturer's instructions. The final two-step purified protein was used for SDS-PAGE analysis. Bands of interest were cut out from the gel and subjected to in-gel digestion with trypsin (Promega, Fitchburg, Wis., USA) followed by MALDI TOF/TOF mass spectrometry analysis (Biomolecular and Proteomics Mass Spectrometry Facility, University of California at San Diego).

T1 sequence (P14618 whole entry K422R): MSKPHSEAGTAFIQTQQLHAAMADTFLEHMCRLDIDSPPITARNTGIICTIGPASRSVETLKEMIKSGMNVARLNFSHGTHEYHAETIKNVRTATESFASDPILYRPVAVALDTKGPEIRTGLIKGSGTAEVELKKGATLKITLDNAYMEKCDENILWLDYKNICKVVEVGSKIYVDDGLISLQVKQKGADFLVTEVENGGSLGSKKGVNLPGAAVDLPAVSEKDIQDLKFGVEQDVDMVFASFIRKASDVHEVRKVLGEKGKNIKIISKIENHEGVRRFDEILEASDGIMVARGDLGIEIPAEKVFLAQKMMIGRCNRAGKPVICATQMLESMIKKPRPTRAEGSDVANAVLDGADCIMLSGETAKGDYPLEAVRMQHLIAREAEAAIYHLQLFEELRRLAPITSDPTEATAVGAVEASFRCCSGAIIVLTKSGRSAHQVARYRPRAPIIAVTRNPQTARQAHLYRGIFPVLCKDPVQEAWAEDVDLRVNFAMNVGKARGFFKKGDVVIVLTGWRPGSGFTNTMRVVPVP
T3 sequence (P14618 whole entry): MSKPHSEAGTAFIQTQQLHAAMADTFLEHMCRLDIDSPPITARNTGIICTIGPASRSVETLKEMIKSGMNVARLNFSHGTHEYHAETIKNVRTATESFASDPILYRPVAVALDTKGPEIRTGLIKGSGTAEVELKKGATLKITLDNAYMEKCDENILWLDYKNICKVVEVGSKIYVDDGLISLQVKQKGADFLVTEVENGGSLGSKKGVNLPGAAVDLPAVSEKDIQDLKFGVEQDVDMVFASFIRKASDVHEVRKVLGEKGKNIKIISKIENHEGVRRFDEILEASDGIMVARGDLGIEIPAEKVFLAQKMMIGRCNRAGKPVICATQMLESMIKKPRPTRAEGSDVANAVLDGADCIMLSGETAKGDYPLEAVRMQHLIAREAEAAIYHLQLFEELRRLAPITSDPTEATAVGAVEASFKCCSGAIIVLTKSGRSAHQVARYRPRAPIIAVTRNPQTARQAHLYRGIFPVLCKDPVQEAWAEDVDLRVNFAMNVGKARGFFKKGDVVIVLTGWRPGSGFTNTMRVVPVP
T2 sequence (P14618 whole entry K270M): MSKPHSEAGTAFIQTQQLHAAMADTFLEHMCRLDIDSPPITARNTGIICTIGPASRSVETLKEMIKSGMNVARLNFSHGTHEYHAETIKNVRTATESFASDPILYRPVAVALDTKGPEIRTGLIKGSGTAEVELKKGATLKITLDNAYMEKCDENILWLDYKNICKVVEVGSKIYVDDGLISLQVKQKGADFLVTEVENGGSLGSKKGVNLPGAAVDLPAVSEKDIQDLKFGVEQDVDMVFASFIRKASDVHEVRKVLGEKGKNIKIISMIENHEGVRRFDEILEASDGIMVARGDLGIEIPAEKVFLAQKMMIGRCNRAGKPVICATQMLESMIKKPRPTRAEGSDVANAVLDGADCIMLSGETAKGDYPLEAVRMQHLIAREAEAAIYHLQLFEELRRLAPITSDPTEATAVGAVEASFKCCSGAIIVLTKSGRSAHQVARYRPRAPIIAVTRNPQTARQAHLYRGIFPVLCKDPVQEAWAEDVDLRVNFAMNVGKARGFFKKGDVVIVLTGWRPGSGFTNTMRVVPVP

B1: IB5: intracellularly expressed single-chain antibody (scFv) specific for PKM2, SEQ ID NO: 2; also made as monovalent recombinant scFv in E. coli (protein)
scFv: MAQVQLVETGPGLVKPSETLSLRCTVSGGSFDNYYWNWIRQPPGKGLEYIGYVFPSTGATNYNPSLGSRVTISLDTSKNQFSLTLTSVTTADTAIYYCVRSGHDLWTGSTWFDPWGQWTTVTVSSGGGGSGGGGSGGGGSEIVLTQSPGTLSLSPGERATLSCRASQSVSSSYLAWYQQKPGQAPRLLIYGASSRATGIPDRFSGSGSGTDFTLTISRLEPEDIAVYYCQQRSNWPRTFGQGTKVEIKRGLGGLASVDYKDDDDK
modifications: artificial intrabody clone 5
notes: also made as monovalent recombinant scFv in E. coli
- glycolytic activity of PKM2 (K422R) (PKM2 (K422R)): stimulated the glycolytic activity of PKM2 (K422R) in a concentration-dependent manner
- activity of PKM2 (K422R) compared with WT PKM2 (PKM2 (K422R); high concentrations of scFv 5): at least equal to that of WT PKM2
- percentage of 293T cells rescued from BimS-induced death (293T cells [1]; single intrabody expressed from lentivirus, BimS cDNA transfection): 15-20%
- survival effect when expressed with a weaker promoter (293T cells [1]; weaker promoter, not shown): reduced
- protection from death induced by transient expression of tBid (293T cells [2]): protected from death
- rescue from BimS-induced cell death (MDA-MB231): failed to rescue
- protection from BimS-induced apoptosis (clonogenicity) (U2OS cells): substantially protected
- catalytic activity of PKM2 (K270M) (PKM2 (K270M)): increased the catalytic activity
- protein pulled down from cell extracts [3]: pulled down a 55-kD protein now identified as pyruvate kinase M2
